Like-named read-outs stand apart in the source and are kept apart here.

For assay [1], the target named is Recombinant Aspf2 (A. fumigatus) lacking the N-terminal 19-amino acid signal peptide, His-tagged (Aspergillus fumigatus) (UniProt P79017). Description: BLI; Aspf2 loaded on Ni(II)-NTA biosensor; analyte Factor H 190-3,000 nM (150 s association, 150 s dissociation) or plasminogen 687.5-5,500 nM (200 s each); buffer control subtracted, BLITZ software.
Assay [2] addresses Aspf2 expressed on the surface of A. fumigatus conidia (Aspergillus fumigatus (endogenous in CEA17 ΔakuB^Ku80 conidia)) (UniProt P79017). The assay is described as follows: flow cytometry on cells; wild-type, Δaspf2 and aspf2^C conidia (BSA-treated) incubated with increasing amounts of purified Factor H, FHL-1, FHR1 or plasminogen 1 h at RT; bound protein detected with antibodies; median fluorescence intensity.

Assay [3] has the same target. Described as above. The source holds these as a separate data set.
The target in the next assay is T1, Human Factor H (human, UniProt P08603 19-1231).
T1 construct: human complement Factor H, 150-kDa plasma protein composed of 20 short conserved repeats (SCR); also called NHS derived Factor H; source: bought: CompTech (purified human Factor H); also in normal human serum (NHS-EDTA) and C3 depleted serum
The assay is described as follows: BLI; Aspf2 loaded on Ni(II)-NTA biosensor; analyte Factor H 190-3,000 nM (150 s association, 150 s dissociation) or plasminogen 687.5-5,500 nM (200 s each); buffer control subtracted, BLITZ software. Conditions: both partners purified.

T1 sequence (P08603 19-1231): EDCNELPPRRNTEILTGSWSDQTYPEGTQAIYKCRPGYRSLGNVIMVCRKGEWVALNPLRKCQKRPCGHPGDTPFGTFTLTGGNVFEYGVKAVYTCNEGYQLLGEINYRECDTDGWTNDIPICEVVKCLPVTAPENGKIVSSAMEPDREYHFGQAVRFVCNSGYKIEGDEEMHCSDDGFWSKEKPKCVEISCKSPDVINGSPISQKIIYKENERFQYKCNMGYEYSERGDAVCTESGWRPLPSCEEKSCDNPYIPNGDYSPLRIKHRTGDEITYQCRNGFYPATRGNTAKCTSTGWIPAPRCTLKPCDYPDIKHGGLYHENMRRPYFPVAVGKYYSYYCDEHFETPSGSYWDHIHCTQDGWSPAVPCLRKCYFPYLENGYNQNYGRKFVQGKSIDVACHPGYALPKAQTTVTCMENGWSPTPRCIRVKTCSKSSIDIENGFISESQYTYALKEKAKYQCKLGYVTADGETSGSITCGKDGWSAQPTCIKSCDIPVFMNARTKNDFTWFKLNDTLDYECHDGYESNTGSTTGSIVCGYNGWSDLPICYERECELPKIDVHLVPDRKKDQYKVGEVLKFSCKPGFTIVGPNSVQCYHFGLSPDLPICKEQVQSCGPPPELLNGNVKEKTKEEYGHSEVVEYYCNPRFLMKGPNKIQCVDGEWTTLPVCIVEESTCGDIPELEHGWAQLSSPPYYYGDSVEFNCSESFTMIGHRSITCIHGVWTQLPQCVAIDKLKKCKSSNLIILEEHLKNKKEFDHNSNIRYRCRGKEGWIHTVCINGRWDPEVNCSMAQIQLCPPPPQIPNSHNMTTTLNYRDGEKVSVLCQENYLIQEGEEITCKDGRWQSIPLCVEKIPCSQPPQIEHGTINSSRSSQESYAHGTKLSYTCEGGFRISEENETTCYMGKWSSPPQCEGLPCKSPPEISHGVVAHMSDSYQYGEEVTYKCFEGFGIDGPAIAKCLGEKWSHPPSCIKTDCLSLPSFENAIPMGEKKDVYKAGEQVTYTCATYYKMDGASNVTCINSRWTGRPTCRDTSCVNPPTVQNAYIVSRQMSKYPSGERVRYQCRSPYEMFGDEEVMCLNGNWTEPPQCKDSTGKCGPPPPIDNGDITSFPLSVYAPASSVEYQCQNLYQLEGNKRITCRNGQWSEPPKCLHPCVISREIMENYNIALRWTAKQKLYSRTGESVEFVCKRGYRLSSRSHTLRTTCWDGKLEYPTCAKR

Take Human plasminogen (natural protein): in assay [1], the Kd is 846 nM. The percent lower binding to Δaspf2 conidia than to wild-type conidia (plasminogen at 20 µg/ml) turned out to be 31% in assay [2] and 24% in assay [3].

B1: Recombinant Aspf2 (A. fumigatus) lacking the N-terminal 19-amino acid signal peptide, His-tagged (natural protein, Aspergillus fumigatus, UniProt P79017 20-310, looked up)
chain: TLPTSPVPIAARATPHEPVFFSWDAGAVTSFPIHSSCNATQRRQIEAGLNEAVELARHAKAHILRWGNESEIYRKYFGNRPTMEAVGAYDVIVNGDKANVLFRCDNPDGNCALEGWGGHWRGANATSETVICDRSYTTRRWLVSMCSQGYTVAGSETNTFWASDLMHRLYHVPAVGQGWVDHFADGYDEVIALAKSNGTESTHDSEALQYFALEAYAFDIAAPGVGCAGESHGPDQGHDTGSASAPASTSTSSSSSGSGSGATTTPTDSPSATIDVPSNCHTHEGGQLHCT
notes: Aspf2 of Aspergillus fumigatus, a 310 amino acid-long protein; cloned from cDNA of strain CEA17 akuB^KU80 without the N-terminal 19-amino acid signal peptide; also called ΔN19AspF2; source: Pichia pastoris X33 (pPICZαB), culture supernatant, purified (HisTrap column)
B1 had a Kd with Human Factor H of 76 nM.

The values are drawn from article PMC6106110, “Aspf2 From Aspergillus fumigatus Recruits Human Immune Regulators for Immune Evasion and Cell Damage” (Frontiers in Immunology, 2018).
